{"source": "the DeepSol protein solubility set", "data": [{"test": "soluble on expression in E. coli; label from the status in PepcDB or PDB records", "values": [{"sequence": "MHHHHHHGKPIPNPLLGLDSTENLYFQGIDPFTEFMDSTDLFDVFEETPVELPTDSNGEKNADTNVGDTPDHTQDKKHGLEEEKEEHEENNSENKKIKSNKSKTEDKNKKVVVPVLADSFEQEASREVDASKGLTNSETLQVEQDGKVRLSHQVRHQVALPPNYDYTPIAEHKRVNEARTYPFTLDPFQDTAISCIDRGESVLVSAHTSAGKTVVAEYAIAQSLKNKQRVIYTSPIKALSNQKYRELLAEFGDVGLMTGDITINPDAGCLVMTTEILRSMLYRGSEVMREVAWVIFDEVHYMRDKERGVVWEETIILLPDKVRYVFLSATIPNAMEFAEWICKIHSQPCHIVYTNFRPTPLQHYLFPAHGDGIYLVVDEKSTFREENFQKAMASISNQIGDDPNSTDSRGKKGQTYKGGSAKGDAKGDIYKIVKMIWKKKYNPVIVFSFSKRDCEELALKMSKLDFNSDDEKEALTKIFNNAIALLPETDRELPQIKHILPLLRRGIGIHHSGLLPILKEVIEILFQEGFLKVLFATETFSIGLNMPAKTVVFTSVRKWDGQQFRWVSGGEYIQMSGRAGRRGLDDRGIVIMMIDEKMEPQVAKGMVKGQADRLDSAFHLGYNMILNLMRVEGISPEFMLEHSFFQFQNVISVPVMEKKLAELKKDFDGIEVEDEENVKEYHEIEQAIKGYREDVRQVVTHPANALSFLQPGRLVEISVNGKDNYGWGAVVDFAKRINKRNPSAVYTDHESYIVNVVVNTMYIDSPVNLLKPFNPTLPEGIRPAEEGEKSICAVIPITLDSIKSIGNLRLYMPKDIRASGQKETVGKSLREVNRRFPDGIPVLDPVKNMKIEDEDFLKLMKKIDVLNTKLSSNPLTNSMRLEELYGKYSRKHDLHEDMKQLKRKISESQAVIQLDDLRRRKRVLRRLGFCTPNDIIELKGRVACEISSGDELLLTELIFNGNFNELKPEQAAALLSCFAFQERCKEAPRLKPELAEPLKAMREIAAKIAKIMKDSKIEVVEKDYVESFRHELMEVVYEWCRGATFTQICKMTDVYEGSLIRMFKRLEELVKELVDVANTIGNSSLKEKMEAVLKLIHRDIVSAGSLYL", "soluble on expression in E. coli": "soluble"}, {"sequence": "MGSDKIHHHHHHMSVSISEKTKQAYQHAVEQASVSLLRQPQNSMADELRLLAEQLQPNEKRDVYGGGSLINDFEDEVAELLGKPAALFLPTGTLAQPLALRVHADERQRNGVALHPTSHLMLHEHMGFEALWKLNGTTTGFADNPITLNDLKSVQTDDLASVLLELPMREIGGQLPNWDDLVMQSEWARQHNIAMHLDGARLWQVPAAYGCSLPEVCELFDSVYVSFYKDLGGISGAILAGSEGFIEQAKIWARRAGGNIITQYPQVLSARHGLKENLPIMPEAVNYARALGEALSALNGVRVNPETPQVAMFHLHFALKANELSEKITDYASNTGVVLLPLPRAEMNNEAICEVSIGRNAMSQPQSFWLRHFKAFLDTL", "soluble on expression in E. coli": "not soluble"}, {"sequence": "MSQTLKQLAMAKMAGFRHKTVVVPEWEGVKVVLREPSGEAWLRWQEVVKGGGDDENVSVSEKAHRNLCADVVLFIDVLCDTDKQPVFSVDEEEQVREIYGPVHSRLLKQALDLINNADEAREKSQPPA", "soluble on expression in E. coli": "not soluble"}, {"sequence": "MGSDKIHHHHHHMSRSIVEVYASWMPIDTPLLVGHLTFAETSRGGVFSFTYDKHFLASNYRLQIDPLLALHSGELYNDSADKNFRAFLDSSPDRWGRILMQRRAAIECRKGIRASAKLTELDYLLGVHDSYRMGGIRFKTAASLDFLDNNTEFSAPPMTSLRELEQAAMNIERDDNIDSDDYYRWLKMLISPGSSLGGARPKACVTDSEGHLWIAKFPNQNDTFDVGAWEMVCYQLALAAGIDMFPSEIRKFSTEHHTFLTKRFDRVGGKRIHFSSAMTQLQYYDGEQSDGASYLEIAEFLSNNGAQTKADLAQLWRRIVFNIAVSNTDDHLRNHGFLLSDKGWKLSPAYDLNPIVGKHGLHLNITDTANELDYALAFEVIDFFRLSREDATRIYDDVMGAVKGWQTVASRLGISRNEQLTKQEAFNV", "soluble on expression in E. coli": "not soluble"}, {"sequence": "MGSDKIHHHHHHMIDELRAMAIFAETIKQGSFRAAAKELKLSPSVVSYQVTQLEKSVGTALIYRSTRKLSLTSEGGVLYQYALNMIQAAQQGLNQVAIEKQELRGTLTLTLPSALIKSEISKKISQFSKLHPFLNFKLFYTDDRQDLIHQGIDLAFRAGSMDDSNLKSKRVGEINRKLVCSYDYWKENIPPISPQDLTTWNWIKLDMLPNHRTLVNSAGEKCDIDFESNISVNNVEAMTQLCINGAGIATPPDYLIEKEIENNALVELLPNWQVESIPLYAVWPSNVFQNSSVKRLLEFLI", "soluble on expression in E. coli": "not soluble"}, {"sequence": "MGSDKIHHHHHHLKNELAVIDIGSNSIRYVIFHPIDSGRYIEKINVKVVARLSAHIDAEGALDSVGIRLLCETLQRFHEIGITHHVEETICVATAAIRNASNRQDIVHAVEQETPFTMRVLSDEQEAYYGYFAIINSTFLTDGYSVDIGGGSMEVTLIENREMIAYHSFPFGAVTLTRQFLSGETMTSGEQKKLIKFLREQFDEIPWLKNKKLPLIGVGGSARNFVRIHQSTLDYPLHGIHQYQVRSKELGKLIDELEDKAPKQLMKVEGLSKDRVDIFLPALIAIHELALHIEAEQFVMSNYGLREGLVYEYDLHEQEQRRIENVREESLYQLESDYKVNRDRMNYLGTIAKSIYRQLVTLDIIPNRAADLRLLDSASRLLYCGQYINPDTRSNQTFYLLTNTDLKGMTHKDRLALALVSSYSSSKRIQQLLKPFKDWFTDKSIERFDLLGSILKLTEALDVTERRAVDSLEIALEKDKKDLRIILDTGDHDYGFEVEKAEKQKKHLERIIDRSIQFDNKGGGLT", "soluble on expression in E. coli": "not soluble"}, {"sequence": "MDNLVDIDEDGTQEKLSVNSTPYQTQECVLYGSIFAKNVPDLERRLAGLCDPGCEEFFEHEMSFSLRSSGIMDIKTDIKLRRRFRTEHRIQNYWQLKYIGVPEPDQKCPTIVRKEISSLVHSQDMMTYAKSLGLRMDYEYMTQGKLWTKGNIKILHSILTSTSRAGTYDSNSIKSVSDSALVEISISLPESAEYMPAAKSLRDFADQLMPLVNMEKVDYWKKMFPAQAAPRR", "soluble on expression in E. coli": "soluble"}, {"sequence": "MNKEALVNRLNASAKRQKADIVIKNGKIMDVYNQEWIYEDIAITDGVIVGLGEYEGENIIDAEGQMIVPGFIDGHVHIESSMVTPIEFAKAVLPHGVTTVVTDPHEIANVSGEKGIEFMLEQARHTPLNIHFMLPSSVPAASFERSGAILKAADLKPFYEEEEVLGLAEVMDYVSVQQAEKDMVQKLLDARVAGKRIDGHLAGLSTDLINIYRTAFVLNDHEVTSKEEALDRIRRGMYVMMREGSVAKNTLNVLPAVNEKNRTPVFFCTDDKHVDDLLSEGSVNHQVKMAIQAGLNPFLAYQLGSLNAAECYGLDTKGAIAPGFDADLLFVSDLENVTVTMTMVKGQTVAEDSKAVYQDHASTAAPDQALLDSVKLAAPLNKQDFHMPIDSEQQINVIQIIPNQLETRLVQVPAPVAREFEPDTELDLLKIAVVERHKGLKETGLGVVKGFGFKSGAIATTISHDSHNIIAVGTNDEDIAAAVNKLQEIGGGLTIIKNGEELHSVPLPIAGLLSDQSAEQVNQSLLTLHDKLSLIGFTGGFNPFLTLSFLALPVIPDIKMTTTGLFDVKSFQHISLQ", "soluble on expression in E. coli": "not soluble"}, {"sequence": "SNAEERLKMSTTTSTQDSGLLKVLLPPFEKKNNVKVDVIAVGTGQALKLGEAGDVDVVFVHARKLEDKFVADGFGVNRKDVMYNDFVIVGPKNDPAGIAKAKTAAEALKLLATKGATFISRGDKSGTHTKELDLWKSAGVDPKGNWYVEAGQGMGPVITMATERRAYTLTDRGTYNAFKGAKTDLVILFQGEKGLFNPYGIMAVNPKKFPHVKYDLAMKLIDYVTGPEGLKIISDY", "soluble on expression in E. coli": "soluble"}, {"sequence": "MRHSFFCIDSHTCGNPVRLVAGGGPLLPHLPISERRDLFVRNHDWVRQALMFEPRGHDIMSGAVIYPAYRDDCDFAVIFIEVSGCLPMCGAGTIGLVTAAIEEGLVTPRIPGRLSIETPAGKVDIQYDKPGEFVESVRIFNVASYLHAADVEVNVPGLGKLVVDIAYGGNYYAVIEPQVGWPGLDGMTAGDVVDLSQKLRDALGTICDPVHPDDERIRGVHHAIWCDRPVSAEADGRGAVFYGDKAIDRSPGGTGTSARMAQLHGKGRLKAGETFRQESLIGTIFEGKVEEETTVGSFSGIRPSIGGWARIIGHNTIFVDDRDPLAHGFQVRLEHHHHHH", "soluble on expression in E. coli": "not soluble"}, {"sequence": "AHHHHHHGSEKLEKTVDMNIQQMINLSVLELVKLGLKYGIFKAVSKKISYIDLLNQVDVPNKPLLKKLIDHLKLLGIIEETPTHLLLNSFSYEIRFPKEEHMYLLPDWIPSFEEIYRMVDFALITPNHPHVLMDFDKDADFWDLRLSSTFHEAYRILIAKLGEIGEGSRVLDIGCGSASPAYFGKLVGEEGEYVGVDYSPALLEIAKNRTEGLPVKLKEMDASLIKPKNKYDVAIMSFVLEYIENRRSALRNALDSLESGGKLIIVDAFKDEFRNVEALEFFEGLNSAFREYPSKKYIKEVILDEGFEVKFGDYGKAILLIEKL", "soluble on expression in E. coli": "soluble"}, {"sequence": "MFARIESGKIIAQKRKELGKTQKVLAEETNVNKSIISQIENGKFSGSLRVYEKYINGLGLELAVRPIKSKIPDFDNLHHLFPDE", "soluble on expression in E. coli": "not soluble"}, {"sequence": "MKIKPVKVESIENPKRFLNSRLLTKIEVEEAIEKALKQLYINIDYFGEEYPTPATFNNIYKVMDNTEWTNGFWTGCLWLAYEYNQDKKLKNIAHKNVLSFLNRINNRIALDHHDLGFLYTPSCTAEYRINGDVKALEATIKAADKLMERYQEKGGFIQAWGELGYKEHYRLIIDCLLNIQLLFFAYEQTGDEKYRQVAVNHFYASANNVVRDDSSAFHTFYFDPETGEPLKGVTRQGYSDESSWARGQAWGIYGIPLSYRKMKDYQQIILFKGMTNYFLNRLPEDKVSYWDLIFTDGSGQPRDTSATATAVCGIHEMLKYLPEVDPDKETYKYAMHTMLRSLIEQYSNNELIAGRPLLLHGVYSWHSGKGVDEGNIWGDYYYLEALIRFYKDWELYW", "soluble on expression in E. coli": "soluble"}, {"sequence": "MGPVPIKLALVIPNYNHSAAISQALSELAALNLPCYLIDDGSNDETRYLLQSLAEQHDWVTLLQHPYNRGKGAAVMTGLRSAYRDGFTHALQVDADGQHNLSDIPAMLAKAQAKPDALISGKPEYDKSVPKGRLYGRYLTHFWVWVETLSFDIQDSMCGFRVYPLAATERLFSKQALTERMDFDIEILVKLYWQGVEILFHPTKVIYPENGVSHFQCVADNVRISKLHTRLFFGMLKRLPQLLRRKQAAKSTSSAHTATHWSAMKERGSYWGIKLLVESYRFGGHWLCRAIMYPVICYFFLTGKVSREASRDFLRRVQHLEPQHPQLNQPVGWRDSLNHFIAFGNAALDRIDAWCDRIQLSQVDFPDRQVLADQLESGKGAVLLVSHLGNLELCRAISIHQRKVKVNVMVLTSHAENFNNVLKQLNPNSSLNLIQVTELNPATSMLLQQKIEDGELVVIAGDRTSSHAQGRVVYAPFMGQDAAFPQGPFILAGLLDCPVYLMFCLREQGRYRVHLERFAETLKGPRAGRMERLQQAVYRYSERLEHYARREPLQWFNFFDFWRDDNQVNRATSAHKTTAALPEQERTTDRTEHLLEHHHHHH", "soluble on expression in E. coli": "soluble"}, {"sequence": "MSLEFQNLANRILDEKSRSFSQSNQTALETLLKPFREQIEGFQKRVNEIHSESVKGNAGLEAEIKKVLEIGLNMSQEASNLTSALKGEKKTLGNWGEVQLERALQLAGLEENVHYRAQAHFKDEQGGRNYPDFVLNLPDEKHLIIDSKMSLVAYESAVNSEDDFERERLLKEHISALKTHINDLHKKDYSNLIGMCSPNFVLMFIAVEPAYIEALKADPALFNYGYERNVIMVSHTTLMPILRTVANLWRIERGNAEAKEIAEKAGEIYNQICLVAERLNKLGNTLSTVSNQYNSTVTALVGQQGLVGKVERFKTLSAKANKTMPDVDLLNNQLDLARLNVLNQENLQEGHHHHHH", "soluble on expression in E. coli": "soluble"}, {"sequence": "MPARRSAARIDFAGSPRPTLGVEWEFALVDSQTRDLSNEATAVIAEIGENPRVHKELLRNTVEIVSGICECTAEAMQDLRDTLGPARQIVRDRGMELFCAGTHPFARWSAQKLTDAPRYAELIKRTQWWGRQMLIWGVHVHVGIRSAHKVMPIMTSLLNYYPHLLALSASSPWWGGEDTGYASNRAMMFQQLPTAGLPFHFQRWAEFEGFVYDQKKTGIIDHMDEIRWDIRPSPHLGTLEVRICDGVSNLRELGALVALTHCLIVDLDRRLDAGETLPTMPPWHVQENKWRAARYGLDAVIILDADSNERLVTDDLADVLTRLEPVAKSLNCADELAAVSDIYRDGASYQRQLRVAQQHDGDLRAVVDALVAELVI", "soluble on expression in E. coli": "soluble"}]}]}
